Assay results from patent US20050079559.

Molecular target: bacterial recombinant GST-Smad3 (UniProt P84022)
Sequence (P84022 whole entry, looked up): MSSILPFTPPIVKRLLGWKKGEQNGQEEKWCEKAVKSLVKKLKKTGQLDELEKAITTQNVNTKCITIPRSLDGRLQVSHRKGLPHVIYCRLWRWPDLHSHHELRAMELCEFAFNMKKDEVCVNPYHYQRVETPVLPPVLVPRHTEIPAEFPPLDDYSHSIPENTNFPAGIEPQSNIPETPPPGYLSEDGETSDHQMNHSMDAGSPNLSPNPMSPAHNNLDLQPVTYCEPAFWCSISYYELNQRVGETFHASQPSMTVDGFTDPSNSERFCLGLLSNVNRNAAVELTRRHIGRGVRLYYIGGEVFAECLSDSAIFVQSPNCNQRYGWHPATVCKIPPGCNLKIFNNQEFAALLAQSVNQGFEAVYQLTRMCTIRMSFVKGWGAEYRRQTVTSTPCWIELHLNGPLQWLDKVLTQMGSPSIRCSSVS

**Q.** phosphorylated (active) p38 was tested. Which “phosphorylation of recombinant Smad3 in an in vitro kinase assay, detected by immunoblotting” value did it give?
**A.** the linker region of Smad3 was directly phosphorylated by p38 and JNK

**Q.** How did the “phosphorylation of recombinant Smad3 in an in vitro kinase assay, detected by immunoblotting” value turn out when phosphorylated (active) JNK was run?
**A.** the linker region of Smad3 was directly phosphorylated by p38 and JNK
